Results: PMC2191102

Target: moth cytochrome c, MCC(99K), wild-type peptide peptide on I-Ek (mouse)
Test: C1/2wt: antigen concentration for half-maximal IL-2 with wild-type I-Ek CHO APC

Work on 2B4 yielded an EC50 of peptide of 25 nM.
